In patent publication US20260217813A1 (published 2026):
Residue numbers refer to the chain shown, from its start.

T1: human IL-23 (IL-23-His-Biotin, Akesobio, 20161209) (human, UniProt Q9NPF7 20-189; P29460 23-328)
T1 construct: His-tagged and biotinylated; also called human IL23-His-Biotin
T1 sequence (looked up) 1: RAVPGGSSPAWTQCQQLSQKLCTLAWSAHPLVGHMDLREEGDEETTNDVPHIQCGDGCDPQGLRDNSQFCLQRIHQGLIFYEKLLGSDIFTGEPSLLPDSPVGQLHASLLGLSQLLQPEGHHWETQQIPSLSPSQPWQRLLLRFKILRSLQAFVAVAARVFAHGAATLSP
T1 sequence (looked up) 2: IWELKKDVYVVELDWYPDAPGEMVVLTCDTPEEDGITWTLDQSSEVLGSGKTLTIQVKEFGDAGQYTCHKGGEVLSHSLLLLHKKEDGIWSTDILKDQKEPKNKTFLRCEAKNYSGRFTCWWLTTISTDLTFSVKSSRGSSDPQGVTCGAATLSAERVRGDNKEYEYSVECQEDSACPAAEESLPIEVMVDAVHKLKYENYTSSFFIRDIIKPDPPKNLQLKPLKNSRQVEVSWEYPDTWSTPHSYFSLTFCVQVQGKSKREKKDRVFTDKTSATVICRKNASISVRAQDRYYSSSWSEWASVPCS

T2: IL-12 (Human IL12 (His Tag)), Sino Biological Cat. No. CT-050-H08H-20 (human, UniProt P29460 23-328; P29459 23-219)
T2 construct: Bought His-tagged p35/p40 heterodimer
T2 sequence (looked up) 1: T1 sequence (looked up) 2
T2 sequence (looked up) 2: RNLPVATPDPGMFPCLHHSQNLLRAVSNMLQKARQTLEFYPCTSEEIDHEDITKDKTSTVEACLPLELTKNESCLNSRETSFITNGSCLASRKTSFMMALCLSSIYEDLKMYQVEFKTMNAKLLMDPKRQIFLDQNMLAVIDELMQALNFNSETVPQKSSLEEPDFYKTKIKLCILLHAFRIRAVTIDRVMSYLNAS

B1: ustekinumab (trade name Stelara) (antibody, V domains shown)
VH: EVQLVQSGAEVKKPGESLKISCKGSGYSFTTYWLGWVRQMPGKGLDWIGIMSPVDSDIRYSPSFQGQVTMSVDKSITTAYLQWNSLKASDTAMYYCARRRPGQGYFDFWGQGTLVTVSS
VL: DIQMTQSPSSLSASVGDRVTITCRASQGISSWLAWYQQKPEKAPKSLIYAASSLQSGVPSRFSGSGSGTDFTLTISSLQPEDFATYYCQQYNIYPYTFGQGTKLEIK
B2: H5L9 (antibody, human IgG1, kappa, V domains shown)
VH: EVQLVQSGAEVKKPGESLKISCQSSGYSFTTYWIGWVRQMPGQGLEWIGIMSPVDSDIRYNPMFRGQVTMSVDKSSSTAYLQWSSLKASDTAMYYCARRRPGQGYFDFWGQGTMVTVSS
VL: DIQMTQSPSSLSASVGDRVTITCKASQNVGSWLAWYQQKPGKAPKSLIYSASSRQSGVPSRFSGSGSGTDFTLTISSLQPEDFATYYCQQYDIYPFTFGQGTKLEIKR
notes: Humanized anti-human IL-12/IL-23 p40 antibody; IgG1 (P01857) / kappa (P01834) constant regions
B3: H5L10 (antibody, human IgG1, kappa, V domains shown)
VH: B2 VH
VL: EIVLTQSPATLSASPGERATISCRASQSVGSWLAWYQQKPGQAPRSLIYAASNLQSGIPARFSGSGSGTDFTLTISSLEPEDFAVYYCQQYNIYPYTFGQGTRLEIKR
notes: IgG1/kappa
B4: H5L11 (antibody, human IgG1, kappa, V domains shown)
VH: B2 VH
VL: B3 VL with G30S, A50S
notes: IgG1/kappa
B5: H5L14 (antibody, human IgG1, kappa, V domains shown)
VH: B2 VH
VL: B3 VL with G30S, Y96F
notes: IgG1/kappa
B6: H5L12 (antibody, human IgG1, kappa, V domains shown)
VH: B2 VH
VL: B3 VL with G30S, L54R
notes: IgG1/kappa

biological target: T1, human IL-23 (IL-23-His-Biotin, …); experiment: FACS competition, IL-23-His-Biotin 2 µg/mL on 293T-IL-12RB1&IL-23R cells, antibody 0.01 µg/mL
Experimental: (§1) 2.1. […] 200 μL of 1% PBSA was added into each sample, and the mixture was centrifuged at 700×g for 5 min to discard the supernatant. According to experiment design, correspondingly diluted antibody (highest final concentration of 30 μg/mL, 3-fold dilution, 8 concentrations in total) and human IL-23 (IL-23-His-Biotin, Akesobio, 20161209) (final concentration of 2 μg/mL) were mixed at a ratio of 1:1, and a blank control was set. The mixture of antibody and human IL23 was incubated on ice for 30 min and then added to the cell precipitate at 100 μL/sample. The resulting mixture was well mixed and incubated on ice for 60 min. 200 μL of 1% PBSA was added, and the mixture was centrifuged at 700×g for 5 min to discard the supernatant, and then washed twice. FITC Streptavidin (Biolegend, Cat. No.: 405202) was diluted at a ratio of 1:500 and added to each tube at 100 μL. The mixture was well mixed and incubated on ice for 40 min in the absence of light. 200 μL of 1% PBSA was added, and the mixture was centrifuged at 700×g for 5 min to discard the supernatant, and then washed twice. 1% PBSA was added at 200 μL/tube, and the cells were resuspended and transferred to a flow cytometry tube for testing.

MFI | Binder
219 | B1
222 | B2
223 | B3
219 | B4
218 | B5
221 | B6

biological target: T1, human IL-23 (IL-23-His-Biotin, …); experiment: FACS competition, IL-23-His-Biotin 2 µg/mL on 293T-IL-12RB1&IL-23R cells, antibody 30 µg/mL
Experimental: as §1

MFI | Binder
9.64 | B1
104 | B2
11.9 | B3
12.9 | B4
14.1 | B5
12.3 | B6

biological target: T1, human IL-23 (IL-23-His-Biotin, …); experiment: FACS competition, IL-23-His-Biotin 2 µg/mL on 293T-IL-12RB1&IL-23R cells, antibody 3.33 µg/mL
Experimental: as §1

MFI | Binder
13.8 | B1
153 | B2
15.7 | B3
20.2 | B4
23.6 | B5
15.8 | B6

biological target: T1, human IL-23 (IL-23-His-Biotin, …); experiment: FACS competition, IL-23-His-Biotin 2 µg/mL on 293T-IL-12RB1&IL-23R cells, antibody 1.11 µg/mL
Experimental: as §1

MFI | Binder
121 | B1
184 | B2
81.6 | B3
97.6 | B4
95.6 | B5
88.5 | B6

biological target: T2, IL-12 (Human IL12 (His Tag)), Sino …; experiment: FACS competition, IL-12-His 20 nM on 293T-IL-12RB1&IL-23R cells, antibody 30 µg/mL
Experimental: (§2) 200 μL of 1% PBSA was added into each sample, and the mixture was centrifuged at 700×g for 5 min to discard the supernatant. According to experiment design, correspondingly diluted antibody (highest final concentration of 30 μg/mL, 3-fold dilution, 8 concentrations in total) and human IL-12 (Sino Biological, Cat. No.: CT-050-H08H-20) (final concentration of 20 nM) were mixed at a ratio of 1:1, and a blank control was set. The mixture of antibody and human IL12 was incubated on ice for 30 min and then added to the cell precipitate at 100 μL/sample. The resulting mixture was well mixed and incubated on ice for 60 min. 200 μL of 1% PBSA was added, and the mixture was centrifuged at 700×g for 5 min to discard the supernatant, and then washed twice. Alexa Fluor® 488 anti-His tag antibody (Biolegend, Cat. No.: 652509) was diluted at a ratio of 1:400 and added to each tube at 100 μL. The mixture was well mixed and incubated on ice for 40 min in the absence of light. 200 μL of 1% PBSA was added, and the mixture was centrifuged at 700×g for 5 min to discard the supernatant, and then washed twice. 1% PBSA was added at 200 μL/tube, and the cells were resuspended and transferred to a flow cytometry tube for testing.

MFI | Binder
28.7 | B1
117 | B2
31.6 | B3
33 | B4
34.9 | B5
31.8 | B6

biological target: T2, IL-12 (Human IL12 (His Tag)), Sino …; experiment: FACS competition, IL-12-His 20 nM on 293T-IL-12RB1&IL-23R cells, antibody 3.33 µg/mL
Experimental: as §2

MFI | Binder
29.7 | B1
146 | B2
40.2 | B3
42.2 | B4
51.9 | B5
31.8 | B6

biological target: T2, IL-12 (Human IL12 (His Tag)), Sino …; experiment: FACS competition, IL-12-His 20 nM on 293T-IL-12RB1&IL-23R cells, antibody 0.01 µg/mL
Experimental: as §2

MFI | Binder
160 | B1
169 | B2
163 | B3
166 | B4
149 | B5
161 | B6

biological target: T2, IL-12 (Human IL12 (His Tag)), Sino …; experiment: FACS competition, IL-12-His 20 nM on 293T-IL-12RB1&IL-23R cells, antibody 0.12 µg/mL
Experimental: as §2

MFI | Binder
137 | B1
160 | B2
151 | B3
145 | B4
146 | B5
133 | B6
